Reference: patent US20250276070A1 (HOSPITAL FOR SICK CHILDREN, published 2025)

Legend:
[1] = biological target: soluble CD4 (UniProt P01730 26-390); assay: BLI, His-tagged target on Ni-NTA
[2] = biological target: T1, BG5050 SOSIP.664 D368R (HIV-1); assay: BLI, His-tagged target on Ni-NTA
T1 construct: also called BG505 SOSIP D368R; BG505 SOSIP.664_D368R trimer

[3] = biological target: T-01 MB IgG2 K288A P329G; assay: BLI, His-tagged receptor on Ni-NTA;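 also: octet RED96 biolayer interferometry of Fc-mutant Multabodies binding human FcγRI, FcγRIIa or FcγRIIb, with the His-tagged receptors captured on Ni-NTA biosensors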
Protocol: (§1) The binding kinetics and affinity to Fc receptors—human Fcγ receptor I (hFcγRI), hFcγRIIa, and hFcγRIIb—of Multabodies comprising different Fc mutations were determined by biolayer interferometry (BLI) using an Octet RED96 BLI system (Pall ForteBio).
(§2) Briefly, His-tagged Fc receptors were loaded onto Ni-NTA biosensors to reach a signal response of 0.8 nm.

[4] = biological target: T2, T-01 MB IgG1 LALAP K288A; assay: BLI, His-tagged receptor on Ni-NTA;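 also: octet RED96 biolayer interferometry of Fc-mutant Multabodies binding human FcγRI, FcγRIIa or FcγRIIb, with the His-tagged receptors captured on Ni-NTA biosensors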
T2 construct: also called K288A+LALAP
Protocol: as §1, §2

[5] = biological target: T3, T-01 MB.v2 IgG1 WT; assay: BLI, His-tagged receptor on Ni-NTA;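 also: octet RED96 biolayer interferometry of Fc-mutant Multabodies binding human FcγRI, FcγRIIa or FcγRIIb, with the His-tagged receptors captured on Ni-NTA biosensors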
T3 construct: also called Multabody v2
Protocol: as §1, §2

[6] = biological target: T4, T-01 MB IgG1 L234A L235A (LALA); assay: BLI, His-tagged receptor on Ni-NTA;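 also: octet RED96 biolayer interferometry of Fc-mutant Multabodies binding human FcγRI, FcγRIIa or FcγRIIb, with the His-tagged receptors captured on Ni-NTA biosensors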
T4 construct: also called T-01 MB IgG1 LALA
Protocol: as §1, §2

[7] = biological target: T-01 MB IgG2 WT; assay: BLI, His-tagged receptor on Ni-NTA
Protocol: as §1, §2

[8] = biological target: T5, T-01 MB.v2 IgG1 M428L N434S (LS); assay: BLI, His-tagged receptor on Ni-NTA
T5 construct: also called T-01 MB.v2 IgG1 LS
Protocol: as §1, §2

[9] = biological target: T6, T-01 MB IgG1 LALAP I253A; assay: BLI, His-tagged receptor on Ni-NTA
T6 construct: also called I253A+LALAP
Protocol: as §1, §2

[10] = biological target: T-01 MB IgG4 WT; assay: BLI, His-tagged receptor on Ni-NTA
Protocol: as §1, §2

[11] = biological target: T-01 MB IgG1 K288A; assay: BLI, His-tagged receptor on Ni-NTA
Protocol: as §1, §2

[12] = biological target: T7, T-01 MB IgG1 WT; assay: BLI, His-tagged receptor on Ni-NTA
T7 construct: also called T-01 MB with wild-type IgG1 Fc
Protocol: as §1, §2

[13] = biological target: T-01 MB IgG1 I253A; assay: BLI, His-tagged receptor on Ni-NTA
Protocol: as §1, §2

[14] = biological target: T-01 MB IgG1 LALA P329G (LALAP); assay: BLI, His-tagged receptor on Ni-NTA
Protocol: as §1, §2

[15] = biological target: T-01 MB IgG1 P329G; assay: BLI, His-tagged receptor on Ni-NTA
Protocol: as §1, §2

[16] = biological target: T-01 MB IgG1 I253V; assay: BLI, His-tagged receptor on Ni-NTA
Protocol: as §1, §2

B1: PGDM1400 IgG1 (antibody, V domains shown)
VH: QAQLVQSGPEVRKPGTSVKVSCKAPGNTLKTYDLHWVRSVPGQGLQWMGWISHEGDKKVIVERFKAKVTIDWDRSTNTAYLQLSGLTSGDTAVYYCAKGSKHRLRDYALYDDDGALNWAVDVDYLSNLEFWGQGTAVTVSS
VL: DFVLTQSPHSLSVTPGESASISCKSSHSLIHGDRNNYLAWYVQKPGRSPQLLIYLASSRASGVPDRFSGSGSDKDFTLKISRVETEDVGTYYCMQGRESPWTFGQGTKVDIKR
binding result [1]: no binding
Kd [2]: 38 nM
koff [2]: 0.000262 s⁻¹
kon [2]: 6900 M⁻¹ s⁻¹

B2: human Fcγ receptor I (hFcγRI) (receptor, UniProt P12314 16-288, looked up)
chain: QVDTTKAVITLQPPWVSVFQEETVTLHCEVLHLPGSSSTQWFLNGTATQTSTPSYRITSASVNDSGEYRCQRGLSGRSDPIQLEIHRGWLLLQVSSRVFTEGEPLALRCHAWKDKLVYNVLYYRNGKAFKFFHWNSNLTILKTNISHNGTYHCSGMGKHRYTSAGISVTVKELFPAPVLNASVTSPLLEGNLVTLSCETKLLLQRPGLQLYFSFYMGSKTLRGRNTSSEYQILTARREDSGLYWCEAATEDGNVLKRSPELELQVLGLQLPTP
Kd [3]: 0.132 nM
koff [3]: 9.13e-05 s⁻¹
kon [3]: 694000 M⁻¹ s⁻¹
Kd [4]: 0.269 nM
koff [4]: 0.000161 s⁻¹
kon [4]: 601000 M⁻¹ s⁻¹
Kd [5]: < 0.001 nM
koff [5]: < 1e-07 s⁻¹
kon [5]: 312000 M⁻¹ s⁻¹
Kd [6]: 0.0297 nM
koff [6]: 1.66e-05 s⁻¹
kon [6]: 558000 M⁻¹ s⁻¹
Kd [7]: 2.03 nM
koff [7]: 0.00154 s⁻¹
kon [7]: 758000 M⁻¹ s⁻¹
Kd [8]: < 0.001 nM
koff [8]: < 1e-07 s⁻¹
kon [8]: 431000 M⁻¹ s⁻¹
Kd [9]: 0.768 nM
koff [9]: 0.000656 s⁻¹
kon [9]: 853000 M⁻¹ s⁻¹
Kd [10]: < 0.001 nM
koff [10]: < 1e-07 s⁻¹
kon [10]: 835000 M⁻¹ s⁻¹
Kd [11]: < 0.001 nM
koff [11]: < 1e-07 s⁻¹
kon [11]: 578000 M⁻¹ s⁻¹
Kd [12]: < 0.001 nM
koff [12]: < 1e-07 s⁻¹
kon [12]: 672000 M⁻¹ s⁻¹
Kd [13]: < 0.001 nM
koff [13]: < 1e-07 s⁻¹
kon [13]: 605000 M⁻¹ s⁻¹
Kd [14]: 0.684 nM
koff [14]: 0.000437 s⁻¹
kon [14]: 639000 M⁻¹ s⁻¹
Kd [15]: 0.0375 nM
koff [15]: 2.49e-05 s⁻¹
kon [15]: 665000 M⁻¹ s⁻¹
Kd [16]: < 0.001 nM
koff [16]: < 1e-07 s⁻¹
kon [16]: 756000 M⁻¹ s⁻¹

B3: human FcγRIIb (hFcγRIIb) (receptor, UniProt P31994 43-217, looked up)
chain: TPAAPPKAVLKLEPQWINVLQEDSVTLTCRGTHSPESDSIQWFHNGNLIPTHTQPSYRFKANNNDSGEYTCQTGQTSLSDPVHLTVLSEWLVLQTPHLEFQEGETIVLRCHSWKDKPLVKVTFFQNGKSKKFSRSDPNFSIPQANHSHSGDYHCTGNIGYTLYSSKPVTITVQAP
binding result [3]: no binding (tested: serial dilutions 20-0.65 nM)
binding result [4]: no binding (tested: serial dilutions 20-0.65 nM)
binding result [5]: no binding (tested: serial dilutions 20-0.65 nM)
Kd [6]: 0.607 nM
koff [6]: 0.000394 s⁻¹
kon [6]: 649000 M⁻¹ s⁻¹
Kd [7]: 1.61 nM
koff [7]: 0.00103 s⁻¹
kon [7]: 637000 M⁻¹ s⁻¹
binding result [8]: no binding (tested: serial dilutions 20-0.65 nM)
binding result [9]: no binding (tested: serial dilutions 20-0.65 nM)
Kd [10]: 0.223 nM
koff [10]: 0.000305 s⁻¹
kon [10]: 1.37e+06 M⁻¹ s⁻¹
Kd [11]: < 0.001 nM
koff [11]: < 1e-07 s⁻¹
kon [11]: 1.25e+06 M⁻¹ s⁻¹
Kd [12]: < 0.001 nM
koff [12]: < 1e-07 s⁻¹
kon [12]: 1.19e+06 M⁻¹ s⁻¹
Kd [13]: < 0.001 nM
koff [13]: < 1e-07 s⁻¹
kon [13]: 1.39e+06 M⁻¹ s⁻¹
binding result [14]: no binding (tested: serial dilutions 20-0.65 nM)
binding result [15]: no binding (tested: serial dilutions 20-0.65 nM)
Kd [16]: < 0.001 nM
koff [16]: < 1e-07 s⁻¹
kon [16]: 1.39e+06 M⁻¹ s⁻¹

B4: human FcγRIIa (hFcγRIIa) (receptor, UniProt P12318 34-217, looked up)
chain: QAAAPPKAVLKLEPPWINVLQEDSVTLTCQGARSPESDSIQWFHNGNLIPTHTQPSYRFKANNNDSGEYTCQTGQTSLSDPVHLTVLSEWLVLQTPHLEFQEGETIMLRCHSWKDKPLVKVTFFQNGKSQKFSHLDPTFSIPQANHSHSGDYHCTGNIGYTLFSSKPVTITVQVPSMGSSSPMG
binding result [3]: no binding (tested: serial dilutions 20-0.65 nM)
binding result [4]: no binding (tested: serial dilutions 20-0.65 nM)
binding result [5]: no binding (tested: serial dilutions 20-0.65 nM)
Kd [6]: 0.208 nM
koff [6]: 0.000121 s⁻¹
kon [6]: 581000 M⁻¹ s⁻¹
Kd [7]: 0.606 nM
koff [7]: 0.000263 s⁻¹
kon [7]: 433000 M⁻¹ s⁻¹
binding result [8]: no binding (tested: serial dilutions 20-0.65 nM)
binding result [9]: no binding (tested: serial dilutions 20-0.65 nM)
Kd [10]: 0.391 nM
koff [10]: 0.000445 s⁻¹
kon [10]: 1.14e+06 M⁻¹ s⁻¹
Kd [11]: < 0.001 nM
koff [11]: < 1e-07 s⁻¹
kon [11]: 1.07e+06 M⁻¹ s⁻¹
Kd [12]: < 0.001 nM
koff [12]: < 1e-07 s⁻¹
kon [12]: 963000 M⁻¹ s⁻¹
Kd [13]: < 0.001 nM
koff [13]: < 1e-07 s⁻¹
kon [13]: 763000 M⁻¹ s⁻¹
binding result [14]: no binding (tested: serial dilutions 20-0.65 nM)
Kd [15]: 0.249 nM
koff [15]: 5.53e-05 s⁻¹
kon [15]: 222000 M⁻¹ s⁻¹
Kd [16]: < 0.001 nM
koff [16]: < 1e-07 s⁻¹
kon [16]: 1.09e+06 M⁻¹ s⁻¹

B5: 10E8v4 IgG1 (antibody, V domains shown)
VH: EVRLVESGGGLVKPGGSLRLSCSASGFDFDNAWMTWVRQPPGKGLEWVGRITGPGEGWSVDYAESVKGRFTISRDNTKNTLYLEMNNVRTEDTGYYFCARTGKYYDFWSGYPPGEEYFQDWGQGTLVIVSS
VL: SELTQDPAVSVALKQTVTITCRGDSLRSHYASWYQKKPGQAPVLLFYGKNNRPSGIPDRFSGSASGNRASLTITGAQAEDEADYYCSSRDKSGSRLSVFGGGTKLTVLS
binding result [1]: no binding

B6: N49P7 IgG1 (antibody, V domains shown)
VH: ADLVQSGAVVKKPGDSVRISCEAQGYRFPDYIIHWIRRAPGQGPEWMGWMNPMGGQVNIPWKFQGRVSMTRDTSIETAFLDLRGLKSDDTAVYYCVRDRSNGSGKRFESSNWFLDLWGRGTAVTIQS
VL: QSALTQPRSVSASPGQSVTISCTGTHNLVSWCQHQPGRAPKLLIYDFNKRPSGVPDRFSGSGSGGTASLTITGLQDDDDAEYFCWAYEAFGGGTKLTVLG
binding result [1]: no binding
